The values that follow come from patent US20090202547A1 (FIBRON, published 2009).

Residue numbers refer to the chain shown, from its start.

T1: FR1exFc (UniProt P11362 22-376, limits assumed)
T1 construct: extracellular domain; also called FGFR1/Fc; FR1/Fc; not shown: Fc part; the construct of FR1exFc is not described
T1 sequence (looked up): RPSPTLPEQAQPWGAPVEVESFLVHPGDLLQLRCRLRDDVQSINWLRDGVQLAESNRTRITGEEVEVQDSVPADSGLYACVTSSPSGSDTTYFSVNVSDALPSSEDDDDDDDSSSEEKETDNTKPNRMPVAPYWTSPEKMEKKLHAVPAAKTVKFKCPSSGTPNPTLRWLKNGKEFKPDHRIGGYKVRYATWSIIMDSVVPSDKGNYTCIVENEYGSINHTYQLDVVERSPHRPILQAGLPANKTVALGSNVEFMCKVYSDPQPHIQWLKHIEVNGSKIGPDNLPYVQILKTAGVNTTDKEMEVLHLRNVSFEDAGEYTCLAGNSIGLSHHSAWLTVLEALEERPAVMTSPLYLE

T2: hFR3^D2Fc (human, UniProt P22607 143-250)
T2 construct: Only domain 2 of the entry stood in the assay; also called product of pChFR3^D2Fc; not shown: human Fc
T2 sequence: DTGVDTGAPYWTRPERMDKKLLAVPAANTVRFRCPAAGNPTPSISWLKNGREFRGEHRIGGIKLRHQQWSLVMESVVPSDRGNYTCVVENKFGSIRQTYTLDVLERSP

B1: MSPRO11 (Fab, V domains shown)
VH: QVQLVQSGAEVKKPGASVKVSCKASGYTFTSYYMHWVRQAPGQGLEWMGWINPNSGGTNYAQKFQGRVTMTRDTSISTAYMELSSLRSEDTAVYYCARYYGSSLYHYVFGGFIDYWGQGTLVTVSS
VL: DIALTQPASVSGSPGQSITISCTGTSSDVGGYNYVSWYQQHPGKAPKLMIYDVSNRPSGVSNRFSGSKSGNTASLTISGLQAEDEADYYCQSHHFYEVFGGGTKLTVLG
B2: MSPRO12 (Fab, V domains shown)
VH: QVQLKESGPALVKPTQTLTLTCTFSGFSLSTSGVGVGWIRQPPGKALEWLALIDWDDDKYYSTSLKTRLTISKDTSKNQVVLTMTNMDPVDTATYYCARYHSWYEMGYYGSTVGYMFDYWGQGTLVTVSS
VL: DIELTQPPSVSVAPGQTARISCSGDALGDKYASWYQQKPGQAPVLVIYDDSDRPSGIPERFSGSNSGNTATLTISGTQAEDEADYYCQSYDFDFAVFGGGTKLTVLG
notes: HuCAL Fab, framework VH2_L3
B3: MSPRO28 (Fab, V domains shown)
VH: QVQLVQSGAEVKKPGSSVKVSCKASGGTFSSYAISWVRQAPGQGLEWMGGIIPIFGTANYAQKFQGRVTITADESTSTAYMELSSLRSEDTAVYYCARGGGWVSHGYYYLFDLWGQGTLVTVSS
VL: DIQMTQSPSSLSASVGDRVTITCRASQGISSYLAWYQQKPGKAPKLLIYAASSLQSGVPSRFSGSGSGTDFTLTISSLQPEDFAVYYCFQYGSIPPTFGQGTKVEIKR
B4: MSPRO59 (Fab, V domains shown)
VH: QVQLQQSGPGLVKPSQTLSLTCAISGDSVSSNSAAWNWIRQSPGRGLEWLGRTYYRSKWYNDYAVSVKSRITINPDTSKNQFSLQLNSVTPEDTAVYYCARSYYPDFDYWGQGTLVTVSS
VL: DIELTQPPSVSVAPGQTARISCSGDALGDKYASWYQQKPGQAPVLVIYDDSDRPSGIPERFSGSNSGNTATLTISGTQAEDEADYYCQSYDGPDLWVFGGGTKLTVLG
notes: HuCAL Fab, framework VH6_L3
B5: MSPRO55 (Fab, V domains shown)
VH: QVQLVQSGAEVKKPGASVKVSCKASGYTFTSYYMHWVRQAPGQGLEWMGWINPNSGGTNYAQKFQGRVTMTRDTSISTAYMELSSLRSEDTAVYYCARSMNSTMYWYLRRVLFDHWGQGTLVTVSS
VL: DIALTQPASVSGSPGQSITISCTGTSSDVGGYNYVSWYQQHPGKAPKLMIYDVSNRPSGVSNRFSGSKSGNTASLTISGLQAEDEADYYCQSYDMYNYIVFGGGTKLTVLG
B6: MSPRO24 (Fab, V domains shown)
VH: QVQLVQSGAEVKKPGSSVKVSCKASGGTFSSYAISWVRQAPGQGLEWMGGIIPIFGTANYAQKFQGRVTITADESTSTAYMELSSLRSEDTAVYYCARVNHWTYTFDYWGQGTLVTVSS
VL: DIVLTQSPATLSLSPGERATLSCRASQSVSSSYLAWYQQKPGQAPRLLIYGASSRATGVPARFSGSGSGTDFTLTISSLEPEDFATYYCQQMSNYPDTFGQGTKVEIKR
B7: MSPRO54 (Fab, V domains shown)
VH: QVQLVQSGAEVKKPGASVKVSCKASGYTFTSYYMHWVRQAPGQGLEWMGWINPNSGGTNYAQKFQGRVTMTRDTSISTAYMELSSLRSEDTAVYYCARNMAYTNYQYVNMPHFDYWGQGTLVTVSS
VL: B2 VL with F92Y, D93F, F94K, A95L
B8: MS-Pro-26-dHLX-MH (Fab, V domains shown)
VH: QVQLVQSGAEVKKPGASVKVSCKASGYTFTSYYMHWVRQAPGQGLEWMGWINPNSGGTNYAQKFQGRVTMTRDTSISTAYMELSSLRSEDTAVYYCARGYWYAYFTYINYGYFDNWGQGTLVTVSS
VL: B5 VL with M95N, Y96N, N97S, Y98D, I99V
notes: Fab mini-antibody format Fab-dHLX-MH, a dimer of the Fab monomer; also called MSPRO26 dimeric dHLX format; Fab-dHLX
B9: MS-Pro-11-dHLX-MH (Fab, V domains shown)
VH: B1 VH
VL: B1 VL
notes: Fab mini-antibody format Fab-dHLX-MH, a dimer of the Fab monomer; also called MSPRO11 Fab-dHLX
B10: MS-Pro-24-dHLX-MH (Fab, V domains shown)
VH: B6 VH
VL: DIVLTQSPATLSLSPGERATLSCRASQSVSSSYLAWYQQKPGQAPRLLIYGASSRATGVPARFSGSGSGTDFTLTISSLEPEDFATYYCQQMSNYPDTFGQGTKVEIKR
notes: Fab mini-antibody format Fab-dHLX-MH, a dimer of the Fab monomer; also called MSPRO24 Fab-dHLX
B11: MS-Pro-28-dHLX-MH (Fab, V domains shown)
VH: B3 VH
VL: B3 VL
notes: Fab mini-antibody format Fab-dHLX-MH, a dimer of the Fab monomer; also called MSPRO28 Fab-dHLX

T3 sequence (P22607 23-806 limits assumed): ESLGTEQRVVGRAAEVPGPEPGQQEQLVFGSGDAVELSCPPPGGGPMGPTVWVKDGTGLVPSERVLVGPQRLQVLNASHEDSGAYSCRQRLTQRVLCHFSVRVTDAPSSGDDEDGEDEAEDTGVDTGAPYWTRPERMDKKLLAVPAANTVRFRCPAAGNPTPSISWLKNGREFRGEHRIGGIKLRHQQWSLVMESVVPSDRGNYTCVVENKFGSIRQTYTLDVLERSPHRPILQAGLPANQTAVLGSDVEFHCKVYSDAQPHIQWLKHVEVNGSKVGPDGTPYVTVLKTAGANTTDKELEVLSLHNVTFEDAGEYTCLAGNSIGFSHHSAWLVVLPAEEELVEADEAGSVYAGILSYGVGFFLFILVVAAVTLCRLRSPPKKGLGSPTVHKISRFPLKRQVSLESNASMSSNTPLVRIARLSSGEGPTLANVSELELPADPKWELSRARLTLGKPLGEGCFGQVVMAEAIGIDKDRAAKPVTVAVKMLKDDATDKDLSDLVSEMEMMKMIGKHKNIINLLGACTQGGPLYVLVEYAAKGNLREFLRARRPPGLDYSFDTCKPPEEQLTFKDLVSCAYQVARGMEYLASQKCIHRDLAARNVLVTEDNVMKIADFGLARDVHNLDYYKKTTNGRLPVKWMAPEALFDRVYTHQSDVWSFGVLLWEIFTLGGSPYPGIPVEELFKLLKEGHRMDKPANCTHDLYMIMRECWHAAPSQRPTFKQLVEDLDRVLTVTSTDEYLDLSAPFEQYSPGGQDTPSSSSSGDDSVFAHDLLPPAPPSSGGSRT

The first experiment has as its target T3, FGFR3 (wild type) on cells (human, UniProt P22607 23-806).
T3 construct: also called FDCP-FR3; FDCP-FGFR3
The experiment is described as follows: FACS. Background: Flow cytometry measures light scatter and fluorescence of single cells or particles in a stream.
The Kd is the equilibrium constant for the complex coming apart. Molecule B1 came in with a Kd of 4 nM.
Regarding B2, the equilibrium dissociation constant (Kd) amounted to 6.5 nM.
Turning to B3, the Kd turned out to be 0.3 nM.
B4: the Kd is below 1 nM.

A further experiment deals with T4, FR3exFc (human).
T4 construct: also called FGFR3/Fc; FR3/Fc
T4 sequence (chain, as listed by the source limits assumed): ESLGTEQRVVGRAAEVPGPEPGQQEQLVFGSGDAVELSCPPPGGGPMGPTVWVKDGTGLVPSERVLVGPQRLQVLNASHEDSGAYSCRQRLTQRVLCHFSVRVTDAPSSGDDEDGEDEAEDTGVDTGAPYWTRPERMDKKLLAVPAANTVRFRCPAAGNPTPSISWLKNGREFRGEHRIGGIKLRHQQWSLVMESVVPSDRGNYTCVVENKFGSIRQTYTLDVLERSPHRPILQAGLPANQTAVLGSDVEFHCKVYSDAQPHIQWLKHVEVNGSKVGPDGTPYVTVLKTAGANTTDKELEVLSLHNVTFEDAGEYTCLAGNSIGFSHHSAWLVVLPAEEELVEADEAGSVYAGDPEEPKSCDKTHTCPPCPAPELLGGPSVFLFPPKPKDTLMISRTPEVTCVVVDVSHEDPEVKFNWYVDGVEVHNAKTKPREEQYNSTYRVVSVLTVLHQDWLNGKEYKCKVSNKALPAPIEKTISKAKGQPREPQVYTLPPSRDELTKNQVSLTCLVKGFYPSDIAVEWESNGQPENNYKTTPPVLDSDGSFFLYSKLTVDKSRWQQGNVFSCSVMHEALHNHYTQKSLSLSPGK
The experiment is described as follows: BIACORE. The protocol:
(§1) The affinity measurements were performed by BIACORE® analysis according to the standard procedure recommended by the supplier (Pharmacia). The anti-Fc antibody was coupled via the EDC/NHS chemistry to the chip and subsequently FGFR3 was captured. The Fabs of the invention were then bound to this surface.
(In general: SPR reads the build-up and loss of mass on a sensor chip optically.)
In general, koff refers to the rate constant with which the complex falls apart. For B1, the koff worked out at 0.0004 s⁻¹.
Consider B5, for which the koff amounted to 0.00074 s⁻¹.
In turn, B6 yielded a koff of 0.0054 s⁻¹.
On to B7, for which the off-rate (koff) stood at 0.002 s⁻¹.
Molecule B2 showed an off-rate (koff) of 0.0023 s⁻¹.
In turn, B3 yielded a koff of 0.004 s⁻¹.
Regarding B4, the koff came to 0.00071 s⁻¹.

In another experiment the target is T3, FGFR3 (wild type) on cells. The experiment is described as follows: cell-based or functional assay.
Consider B1, for which the “IC50 FR3 (FGF9), FDCP-FGFR3 proliferation assay” value (shortened to “IC50 FR3 (FGF9)”) worked out at 220 nM.
For B5, the “IC50 FR3 (FGF9)” value came to 34 nM.
Turning to B6, the “IC50 FR3 (FGF9)” value was 70 nM.
Turning to B7, the “IC50 FR3 (FGF9)” value was 45 nM.
For B2, the “IC50 FR3 (FGF9)” value was 58 nM.
Regarding B3, the “IC50 FR3 (FGF9)” value came to 50 nM.
For B4, the “IC50 FR3 (FGF9)” value worked out at 19 nM.

A further experiment addresses T3, FGFR3 (wild type) on cells. The experiment is described as follows: cell-based or functional assay. The source holds these as a separate data set.
Regarding B8, the “IC50, FDCP-FGFR3 proliferation assay with FGF9, dimeric dHLX format” value was 8 nM.
Regarding B2, the “IC50, FDCP-FGFR3 proliferation assay with FGF9, monomeric Fab (in parentheses)” value was 58 nM.

The target of a further experiment is T3, FGFR3 (wild type) on cells. The experiment is described as follows: indirect FACS-Scatchard.
With B1, binding was characterised by a dissociation constant (Kd) of 4 nM.
The molecule B6 came in with a Kd of 0.3 nM.
In the case of B2, the Kd was 6.5 nM.
The same measure, in the same setting: with B3 the figure was 0.3 nM.

The target of the next experiment is T4, FR3exFc. The experiment is described as follows: BIAcore, Fab-dHLX-MH miniantibody.
The molecule B9 registered a Kd of 0.7 nM.
B8: the Kd stood at 2 nM.
With B10, binding was characterised by a dissociation constant (Kd) of 2 nM.
B11 registered a Kd of 1.6 nM.

Another experiment addresses T1, FR1exFc. In words: Affinity to FGFR1 (BIACORE and/or FACS).
The molecule B7 returned a Kd of 2.5 nM.
In turn, B3 showed a Kd of 160 nM.

The next experiment deals with T4, FR3exFc. In words: BIACORE, FGFR3 captured on an anti-Fc chip. The protocol:
as §1
As for B1, the Kd was 4 nM.
The molecule B5 had a Kd of 2.9 nM.
In the case of B6, binding was characterised by a dissociation constant (Kd) of 10 nM.
Consider B7, for which the dissociation constant Kd worked out at 3.7 nM.
Same read-out and setting: as for B2, the figure is 14 nM.
Molecule B3 displayed a Kd of 9 nM.
With B4, binding was characterised by a dissociation constant (Kd) of 1.5 nM.

The target in the next experiment is T4, FR3exFc. The experiment is described as follows: BIACORE, FGFR3 captured on an anti-Fc chip. The source holds these as a separate data set. The protocol:
as §1
Take B1: binding was characterised by a dissociation constant (Kd) of 4 nM.
B6 yielded a Kd of 10 nM.
As to B2, binding was put at a Kd of 14 nM.
In turn, B3 registered a Kd of 9 nM.

In another experiment the target is T4, FR3exFc. In words: BIAcore; number in parentheses taken as the monomeric Fab. The protocol: as §1
For B1, the Kd stood at 4 nM.
As for B6, the Kd came out at 10 nM.
Same read-out and setting: with B2 the figure was 14 nM; with B3, 9 nM.

A further experiment concerns the target T2, hFR3^D2Fc. In words: ELISA, Fc fusion anchored on an anti-human Fc coated plate, bound Fab detected with HRP anti-human Fab. From the text:
Constructs comprising cDNAs that code for segments of the extracellular domain of FGFR3 were generated (FIG. 10). D2 comprises Ig domain 2, D2-3 comprises Ig domains 2 and 3, and D1-3 comprises Ig domains 1, 2 and 3. These constructs include pChFR3^D2Fc that codes for Ig-like domain 2 of FGFR3 and pChFR3^{D2,3}Fc that codes for domain 2 and 3, both as human Fc fusions. The corresponding chimeric proteins, as well as the control hFR3exFc (containing domains 1, 2 and 3) were anchored to an ELISA plate coated with a human Fc antibody. A panel of 8 best Fabs, MSPRO2, 11, 12, 21, 24, 26, 28 and 29, were added, and bound Fab was determined with HRP-α human Fab (FIG. 11). […] Both bind to the Ig like domain 2 while the others require domain 3 for binding. It was then tested whether or not Fabs that belong to the second group would distinguish the FGFR3IIIc isoform from the FGFRIIIb from. FDCP-FR3IIIb or FDCP-FR3IIIc cells were incubated in the presence of 1.25 ng/ml FGF9 with increasing doses of either MSPRO12 or MSPRO29. Ly6.3 was included as control. After 2 days in culture, cell proliferation was measured with the XTT reagent. Clearly, MSPRO29 (open triangle) was completely ineffective against the IIIb isoform (FIG. 12).
In the case of B1, the binding result was “no binding”.
For B6, the binding result was “no binding”.
Take B3: the binding result is recorded as “no binding”.
